In the Human Domainome abundance scans (Beltran et al. 2025):
± gives the uncertainty stated by the source.

B1: Steroid hormone receptor ERR2, residues 100 to 176; numbered along this chain, O95718 (parent)
chain: KRLCLVCGDIASGYHYGVASCEACKAFFKRTIQGNIEYSCPATNECEITKRRRKSCQACRFMKCLKVGMLKEGVRLD

Variants of: B1
Assay: abundance fitness (aPCA) (normalised: wild type 0, dead -1); higher = more abundant; growth selection in yeast, the domain comes from the species named
Settings: Homo sapiens

Q: With KRLCLVCGDIASGYHYGVASCEACKAFFKRTIQGNIEYSCPATNECEITKRRRKSCQACRWMKCLKVGMLKEGVRLD as the variant, how does the abundance fitness read?
A: 0.125 ± 0.047

Q: With KRLCLVCGDIASGYHYGVASCEACKAFFKRTIQGNIEYSCPATNECEITKRRRKSCQACRVMKCLKVGMLKEGVRLD as the variant, how does the abundance fitness read?
A: -0.269 ± 0.053

Q: With KRLCLVCGDIASGYHYGVASCEACKAFFKRTIQGNIEYSCPATNECEITKRRRKSCQACRFMDCLKVGMLKEGVRLD as the variant, how does the abundance fitness read?
A: -0.783 ± 0.17

Q: For KRLCLVCGDIASGYHYGVASCEACKAFFKRTIQGNIEYSCPATNECEITKRRRKSCQACRFMQCLKVGMLKEGVRLD, which abundance fitness is on record?
A: -0.21 ± 0.064

Q: For KRLCLVCGDIASGYHYGVASCEACKAFFKRTIQGNIEYSCPATNECEITKRRRKSCQACRFMYCLKVGMLKEGVRLD, which abundance fitness is on record?
A: -0.982 ± 0.28

Q: Which abundance fitness does the source give for KRLCLVCGDIASGYHYGVASCEACKAFFKRTIQGNIEYSCPATNECEITKRRRKSCQACRFMLCLKVGMLKEGVRLD here?
A: -0.55 ± 0.062

Q: With KRLCLVCGDIASGYHYGVASCEACKAFFKRTIQGNIEYSCPATNECEITKRRRKSCQACRFMTCLKVGMLKEGVRLD as the variant, how does the abundance fitness read?
A: -0.226 ± 0.068

Q: For KRLCLVCGDIASGYHYGVASCEACKAFFKRTIQGNIEYSCPATNECEITKRRRKSCQACRFMRCLKVGMLKEGVRLD, which abundance fitness is on record?
A: -0.145 ± 0.041

Q: With KRLCLVCGDIASGYHYGVASCEACKAFFKRTIQGNIEYSCPATNECEITKRRRKSCQACRFMHCLKVGMLKEGVRLD as the variant, how does the abundance fitness read?
A: -0.359 ± 0.12

Q: Which abundance fitness does the source give for KRLCLVCGDIASGYHYGVASCEACKAFFKRTIQGNIEYSCPATNECEITKRRRKSCQACRFMVCLKVGMLKEGVRLD here?
A: -0.522 ± 0.058

Q: With KRLCLVCGDIASGYHYGVASCEACKAFFKRTIQGNIEYSCPATNECEITKRRRKSCQACRFMWCLKVGMLKEGVRLD as the variant, how does the abundance fitness read?
A: -0.58 ± 0.079

Q: With KRLCLVCGDIASGYHYGVASCEACKAFFKRTIQGNIEYSCPATNECEITKRRRKSCQACRFMPCLKVGMLKEGVRLD as the variant, how does the abundance fitness read?
A: -0.914 ± 0.16

Q: Which abundance fitness does the source give for KRLCLVCGDIASGYHYGVASCEACKAFFKRTIQGNIEYSCPATNECEITKRRRKSCQACRFMMCLKVGMLKEGVRLD here?
A: -0.11 ± 0.06

Q: For KRLCLVCGDIASGYHYGVASCEACKAFFKRTIQGNIEYSCPATNECEITKRRRKSCQACRFMECLKVGMLKEGVRLD, which abundance fitness is on record?
A: -0.596 ± 0.082

Q: Which abundance fitness does the source give for KRLCLVCGDIASGYHYGVASCEACKAFFKRTIQGNIEYSCPATNECEITKRRRKSCQACRFMACLKVGMLKEGVRLD here?
A: -0.233 ± 0.052

Q: For KRLCLVCGDIASGYHYGVASCEACKAFFKRTIQGNIEYSCPATNECEITKRRRKSCQACRFMCCLKVGMLKEGVRLD, which abundance fitness is on record?
A: -0.242 ± 0.077

Q: For KRLCLVCGDIASGYHYGVASCEACKAFFKRTIQGNIEYSCPATNECEITKRRRKSCQACRFMGCLKVGMLKEGVRLD, which abundance fitness is on record?
A: -0.534 ± 0.058

Q: With KRLCLVCGDIASGYHYGVASCEACKAFFKRTIQGNIEYSCPATNECEITKRRRKSCQACRFMNCLKVGMLKEGVRLD as the variant, how does the abundance fitness read?
A: -0.605 ± 0.15

Q: For KRLCLVCGDIASGYHYGVASCEACKAFFKRTIQGNIEYSCPATNECEITKRRRKSCQACRFMFCLKVGMLKEGVRLD, which abundance fitness is on record?
A: -0.931 ± 0.23

Q: For KRLCLVCGDIASGYHYGVASCEACKAFFKRTIQGNIEYSCPATNECEITKRRRKSCQACRFMSCLKVGMLKEGVRLD, which abundance fitness is on record?
A: -0.611 ± 0.069

Q: For KRLCLVCGDIASGYHYGVASCEACKAFFKRTIQGNIEYSCPATNECEITKRRRKSCQACRFMICLKVGMLKEGVRLD, which abundance fitness is on record?
A: -0.461 ± 0.19

Q: Which abundance fitness does the source give for KRLCLVCGDIASGYHYGVASCEACKAFFKRTIQGNIEYSCPATNECEITKRRRKSCQACRFMKCEKVGMLKEGVRLD here?
A: -0.132 ± 0.054

Q: With KRLCLVCGDIASGYHYGVASCEACKAFFKRTIQGNIEYSCPATNECEITKRRRKSCQACRFMKCPKVGMLKEGVRLD as the variant, how does the abundance fitness read?
A: -0.753 ± 0.17

Q: Which abundance fitness does the source give for KRLCLVCGDIASGYHYGVASCEACKAFFKRTIQGNIEYSCPATNECEITKRRRKSCQACRFMKCHKVGMLKEGVRLD here?
A: -0.797 ± 0.35

Q: For KRLCLVCGDIASGYHYGVASCEACKAFFKRTIQGNIEYSCPATNECEITKRRRKSCQACRFMKCVKVGMLKEGVRLD, which abundance fitness is on record?
A: -0.082 ± 0.044

Q: With KRLCLVCGDIASGYHYGVASCEACKAFFKRTIQGNIEYSCPATNECEITKRRRKSCQACRFMKCTKVGMLKEGVRLD as the variant, how does the abundance fitness read?
A: -0.516 ± 0.093

Q: For KRLCLVCGDIASGYHYGVASCEACKAFFKRTIQGNIEYSCPATNECEITKRRRKSCQACRFMKCAKVGMLKEGVRLD, which abundance fitness is on record?
A: -0.256 ± 0.064

Q: Which abundance fitness does the source give for KRLCLVCGDIASGYHYGVASCEACKAFFKRTIQGNIEYSCPATNECEITKRRRKSCQACRFMKCNKVGMLKEGVRLD here?
A: -0.813 ± 0.31

Q: For KRLCLVCGDIASGYHYGVASCEACKAFFKRTIQGNIEYSCPATNECEITKRRRKSCQACRFMKCGKVGMLKEGVRLD, which abundance fitness is on record?
A: -0.534 ± 0.055

Q: With KRLCLVCGDIASGYHYGVASCEACKAFFKRTIQGNIEYSCPATNECEITKRRRKSCQACRFMKCIKVGMLKEGVRLD as the variant, how does the abundance fitness read?
A: -0.289 ± 0.11

Q: For KRLCLVCGDIASGYHYGVASCEACKAFFKRTIQGNIEYSCPATNECEITKRRRKSCQACRFMKCSKVGMLKEGVRLD, which abundance fitness is on record?
A: -0.442 ± 0.071

Q: For KRLCLVCGDIASGYHYGVASCEACKAFFKRTIQGNIEYSCPATNECEITKRRRKSCQACRFMKCDKVGMLKEGVRLD, which abundance fitness is on record?
A: -0.548 ± 0.15

Q: Which abundance fitness does the source give for KRLCLVCGDIASGYHYGVASCEACKAFFKRTIQGNIEYSCPATNECEITKRRRKSCQACRFMKCRKVGMLKEGVRLD here?
A: -0.459 ± 0.052

Q: Which abundance fitness does the source give for KRLCLVCGDIASGYHYGVASCEACKAFFKRTIQGNIEYSCPATNECEITKRRRKSCQACRFMKCFKVGMLKEGVRLD here?
A: -0.433 ± 0.12

Q: Which abundance fitness does the source give for KRLCLVCGDIASGYHYGVASCEACKAFFKRTIQGNIEYSCPATNECEITKRRRKSCQACRFMKCQKVGMLKEGVRLD here?
A: -0.102 ± 0.062
